Experimental data taken from US20240228595A1 (YALE UNIVERSITY, published 2024).
Like-named read-outs stand apart in the source and are kept apart here.

Experiments:
[1] = target: T1, SARS-COV-2 RBD-his tag protein (Sino Biological) (SARS-CoV-2, UniProt P0DTC2 319-541)
[2] = target: T1, SARS-COV-2 RBD-his tag protein (Sino …); remark: listed apart in the source
[3] = target: T1, SARS-COV-2 RBD-his tag protein (Sino …); remark: listed apart in the source

Binder | Kd [1] | koff [1] | kon [1] | Kd [2] | koff [2] | kon [2] | Kd [3] | koff [3] | kon [3]
Clone 2 (antibody, V domains shown) VH: EVQLQQSGPELVKPGASVKISCKASGYSFTGYSMNWMKQSPEKSLEWIGEINPSTGGTTDNQKFKAKATLTVDKSSSTAYMQLKSLTSEDSAVYYCARSRGDYWGQGTSVTVSS VL: DIVLTQSPASLAVSLGQRATISCRASESVEYYGTSLMQWYQQKPGQPPKVLIYAASNVESGVPARFSGSGSGTDFSLNIHPVEEDDIAMYFCQQSRKVPWTFGGGTKLEIKR | 0.0441 nM | 7.09e-05 s⁻¹ | 1.61e+06 M⁻¹ s⁻¹ | 1.67 nM | 0.000853 s⁻¹ | 511000 M⁻¹ s⁻¹ | 0.00158 nM | 1.49e-07 s⁻¹ | 94500 M⁻¹ s⁻¹
Clone 6 (antibody, V domains shown) VH: QVQLQQSAAELARPGASVKMSCKASGYTFTSYTMHWVKQRPGQGLEWIGYINPTSGYTEYNQNFKDKTTLTADKSSSTAYMQLNSLTSEDSAVYYCAREGHRVGPAYWGQGTLVTVSA VL: not shown | 0.148 nM | 0.00056 s⁻¹ | 3.77e+06 M⁻¹ s⁻¹ | 2.27 nM | 0.00611 s⁻¹ | 2.69e+06 M⁻¹ s⁻¹ |  |  | 
Clone 16 (Clone6-KiH-Clone2) bispecific antibody (bispecific antibody) heavy 1: not shown light 1: DIVLTQSPASLAVSLGQRATISCRASESVDNYGISFMNWFQQTPGQPPKLLIYGSSNQGSGVPARFSGSGSGTDFSLNIHPMEEDDTAMYFCQQSKEVPYTFGGGTKLEIKRTVAAPSVFIFPPSDEQLKSGTASVVCLLNNFYPREAKVQWKVDNALQSGNSQESVTEQDSKDSTYSLSSTLTLSKADYEKHKVYACEVTHQGLSSPVTKSFNRGEC heavy 2: not shown light 2: DIVLTQSPASLAVSLGQRATISCRASESVEYYGTSLMQWYQQKPGQPPKVLIYAASNVESGVPARFSGSGSGTDFSLNIHPVEEDDIAMYFCQQSRKVPWTFGGGTKLEIKRSSASTKGPSVFPLAPSSKSTSGGTAALGCLVKDYFPEPVTVSWNSGALTSGVHTFPAVLQSSGLYSLSSVVTVPSSSLGTQTYICNVNHKPSNTKVDKKVEPKSC |  |  |  | 2.95 nM | 0.00461 s⁻¹ | 1.56e+06 M⁻¹ s⁻¹ |  |  | 
Clone 13 (antibody, human IgG1, kappa, V domains shown) VH: EVQLVESGGGLVQPGGSLRLSCAASGFTFSGYSMNWVRQAPGKGLEWVAEINPSTGGTTDNQKFKARFTISRDNSKNTLYLQMNSLRAEDTAVYYCARSRGDYWGQGTLVTVSS VL: DIQMTQSPSSLSASVGDRVTITCRASESVEYYGTSLMQWYQQKPGKAPKLLIYAASNVESGVPSRFSGSGSGTDFTLTISSLQPEDFATYYCQQSRKVPWTFGQGTKVEIKR |  |  |  | 4.17 nM | 0.000497 s⁻¹ | 119000 M⁻¹ s⁻¹ |  |  | 
